In patent publication US20160229903:

Tests used:
[1] = system: VWF-052 (VWF D′D3-Fc with non-cleavable 48 amino acid long GS linker)
[2] = system: VWF-055 (VWF D′D3-Fc with 34 amino acid long little a2 linker)
VWF-055 (VWF D′D3-Fc with 34 amino acid long little a2 linker), sequence (chain, as listed by the source): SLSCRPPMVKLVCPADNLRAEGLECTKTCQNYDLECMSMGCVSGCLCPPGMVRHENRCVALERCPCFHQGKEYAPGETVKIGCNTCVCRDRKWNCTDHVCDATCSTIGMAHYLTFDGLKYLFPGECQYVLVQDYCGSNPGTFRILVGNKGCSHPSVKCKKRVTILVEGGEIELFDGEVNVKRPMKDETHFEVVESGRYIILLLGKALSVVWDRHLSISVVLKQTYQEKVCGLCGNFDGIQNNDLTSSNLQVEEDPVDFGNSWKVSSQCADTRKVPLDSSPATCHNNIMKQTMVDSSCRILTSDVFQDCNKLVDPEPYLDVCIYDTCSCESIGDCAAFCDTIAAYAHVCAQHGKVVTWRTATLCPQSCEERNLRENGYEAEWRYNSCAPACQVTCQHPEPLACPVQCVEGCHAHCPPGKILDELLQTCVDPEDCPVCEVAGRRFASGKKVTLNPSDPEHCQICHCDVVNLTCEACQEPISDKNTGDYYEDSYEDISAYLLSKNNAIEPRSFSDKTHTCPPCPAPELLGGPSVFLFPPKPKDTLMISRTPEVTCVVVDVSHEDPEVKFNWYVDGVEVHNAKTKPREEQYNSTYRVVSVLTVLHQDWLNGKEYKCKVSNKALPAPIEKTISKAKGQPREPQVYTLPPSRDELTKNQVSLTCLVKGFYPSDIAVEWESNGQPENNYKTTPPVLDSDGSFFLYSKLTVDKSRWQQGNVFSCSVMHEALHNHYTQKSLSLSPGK

VWF-052 (VWF D′D3-Fc with non-cleavable 48 amino acid long GS linker), sequence (chain, as listed by the source): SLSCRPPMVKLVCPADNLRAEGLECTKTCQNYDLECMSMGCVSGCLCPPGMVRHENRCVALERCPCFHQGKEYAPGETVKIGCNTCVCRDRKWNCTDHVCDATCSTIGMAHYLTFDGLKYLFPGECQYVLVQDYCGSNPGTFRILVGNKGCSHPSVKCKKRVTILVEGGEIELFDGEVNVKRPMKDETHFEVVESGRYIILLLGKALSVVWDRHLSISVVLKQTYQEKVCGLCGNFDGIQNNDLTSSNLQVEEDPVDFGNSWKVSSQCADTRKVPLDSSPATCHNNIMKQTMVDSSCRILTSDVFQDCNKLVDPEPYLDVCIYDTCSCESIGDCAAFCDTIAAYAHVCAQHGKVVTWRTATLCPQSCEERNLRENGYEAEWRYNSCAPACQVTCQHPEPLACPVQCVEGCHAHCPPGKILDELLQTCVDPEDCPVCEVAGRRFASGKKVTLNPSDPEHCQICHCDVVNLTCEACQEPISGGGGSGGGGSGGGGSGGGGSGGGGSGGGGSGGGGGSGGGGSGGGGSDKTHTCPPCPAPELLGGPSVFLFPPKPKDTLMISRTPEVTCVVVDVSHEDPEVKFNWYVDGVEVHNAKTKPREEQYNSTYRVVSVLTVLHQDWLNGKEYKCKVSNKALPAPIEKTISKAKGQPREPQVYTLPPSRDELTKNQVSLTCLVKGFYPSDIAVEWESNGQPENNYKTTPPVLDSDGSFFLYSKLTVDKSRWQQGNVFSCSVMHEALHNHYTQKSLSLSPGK

human alpha-thrombin
thrombin cleavage (Biacore, release of D′D3 from captured construct) [1]: as expected is not cleaved by thrombin | thrombin cleavage (Biacore, release of D′D3 from captured construct) [2]: displayed similar thrombin cleavage as VWF-039 construct
